B1: LINE1-full (parent)
chain: UACGUAGGUGGUUUUCCCCUGAUAGUGCUAAGGGGGCCUGGAAGUUUGGACUGGGCAGAGCUCAACACAGCGUGGCAAAGUGGCUGUGGCUAGACUGCCUCUCUGGAUUCCUCGUCACUCAGCAGGGCAUCUCUGAGAGAAAUGCC

Variants of: B1
Test: self-cleavage, relative activity (ratio to wild type); higher = more cleavage; in vitro, sequencing; the parent is a self-cleaving ribozyme
Variant A6G U87A has a self-cleavage of 0.17.
Variant U73C A140U has a self-cleavage of 1.85.
A121G G122A showed a self-cleavage of 1.46.
For U73A C76U, the self-cleavage was 2.51.
A57U G126A showed a self-cleavage of 0.07.
Work on U91A U100A yielded a self-cleavage of 0.56.
In the case of A94G U100A, the self-cleavage is reported as 0.21.
Variant A59G U143G has a self-cleavage of 0.03.
Variant G32A C101U has a self-cleavage of 0.95.
For U29C U73C, the self-cleavage was 1.3.
For C101A A142G, the self-cleavage was 1.53.
With A42G U132A the self-cleavage was 1.8.
With U115G the self-cleavage was 1.5.
Variant A43G G105U has a self-cleavage of 1.65.
With U45A U87C the self-cleavage was 0.24.
U9C G34A showed a self-cleavage of 1.05.
U14G G36U gave a self-cleavage of 1.51.
U29C A107G gave a self-cleavage of 0.7.
Variant U13A U85C has a self-cleavage of 0.13.
Work on U5A A79U yielded a self-cleavage of 0.77.
G11A U20C showed a self-cleavage of 2.58.
U13C C116A gave a self-cleavage of 1.15.
A79G C120U showed a self-cleavage of 1.26.
G11A U12C showed a self-cleavage of 0.33.
Work on U20C U23C yielded a self-cleavage of 1.2.
G106A A141G showed a self-cleavage of 1.16.
In the case of U12C A142U, the self-cleavage is reported as 0.91.
Variant U14C A92G has a self-cleavage of 0.14.
Work on A2U C56A yielded a self-cleavage of 0.03.
A67G G80A gave a self-cleavage of 0.79.
In the case of U96A U108C, the self-cleavage is reported as 0.08.
A42C C145U showed a self-cleavage of 1.53.
With G49U U108C the self-cleavage was 1.5.
For U12G U46C, the self-cleavage was 1.29.
A67U showed a self-cleavage of 0.11.
Work on G44A U134G yielded a self-cleavage of 1.02.
Work on A6G C145U yielded a self-cleavage of 1.64.
U115A G122C gave a self-cleavage of 1.09.
Work on U1C U46A yielded a self-cleavage of 0.43.
Work on C19U G72A yielded a self-cleavage of 1.19.
Variant C71G A124G has a self-cleavage of 0.25.
With U14A A31U the self-cleavage was 0.84.
C3U U26A showed a self-cleavage of 1.04.
For U9C G35C, the self-cleavage was 1.43.
Work on U87A U115A yielded a self-cleavage of 0.1.
In the case of U108C C145G, the self-cleavage is reported as 2.49.
Work on U5G A64C yielded a self-cleavage of 0.19.
With A6G A124G the self-cleavage was 0.38.
Work on U20C G41A yielded a self-cleavage of 1.27.
Variant U85A U100C has a self-cleavage of 0.21.
A31G A59C showed a self-cleavage of 1.53.
U29C U47A showed a self-cleavage of 1.11.
With A22U A136U the self-cleavage was 1.04.
With G32C A67G the self-cleavage was 0.
U52A G126C showed a self-cleavage of 1.81.
Variant U96C U115A has a self-cleavage of 0.13.
Work on U12A U46C yielded a self-cleavage of 1.31.
For A78U A140C, the self-cleavage was 2.32.
C66A A141G showed a self-cleavage of 0.04.
G75A A117C showed a self-cleavage of 1.31.
With U26C U46C the self-cleavage was 1.71.
G34U A92G gave a self-cleavage of 0.14.
Work on A69G A136G yielded a self-cleavage of 0.42.
For U12A U81A, the self-cleavage was 1.89.
For U100C C103U, the self-cleavage was 1.65.
With A107G A142U the self-cleavage was 0.74.
Work on C38U U46C yielded a self-cleavage of 1.51.
G10A U73G gave a self-cleavage of 1.14.
U5C U73A showed a self-cleavage of 1.74.
In the case of U73C G75U, the self-cleavage is reported as 0.78.
For U14C A64U, the self-cleavage was 0.46.
Variant G53A has a self-cleavage of 1.32.
With A65G U108C the self-cleavage was 0.07.
For A57C U102C, the self-cleavage was 0.1.
Work on U91C A136U yielded a self-cleavage of 0.58.
C3A C98A showed a self-cleavage of 0.28.
With U26C A78G the self-cleavage was 1.1.
Variant C71U U115A has a self-cleavage of 0.85.
For A67U U112A, the self-cleavage was 0.13.
For U20A U109A, the self-cleavage was 0.88.
U62C A65G showed a self-cleavage of 0.1.
In the case of G127A A138G, the self-cleavage is reported as 1.36.
For A57U U62A, the self-cleavage was 0.03.
For A57G U85G, the self-cleavage was 0.23.
Work on A57G A129G yielded a self-cleavage of 0.74.
In the case of C51U G137U, the self-cleavage is reported as 1.25.
U81A U109C showed a self-cleavage of 1.98.
In the case of U87A U143C, the self-cleavage is reported as 0.11.
In the case of A30U U104A, the self-cleavage is reported as 1.93.
C17U U104A showed a self-cleavage of 0.95.
For C28A G126A, the self-cleavage was 0.66.
G34C U96C gave a self-cleavage of 0.14.
G54A G75C gave a self-cleavage of 0.33.
Work on A59G U119C yielded a self-cleavage of 0.13.
U9A G32A gave a self-cleavage of 1.73.
U85C U134C gave a self-cleavage of 0.26.
In the case of U23A C98G, the self-cleavage is reported as 0.14.
For A6U G32U, the self-cleavage was 0.54.
For C3U A24U, the self-cleavage was 1.15.
Variant A6U U115C has a self-cleavage of 1.28.
G44A U96C gave a self-cleavage of 0.13.
In the case of U29C C63A, the self-cleavage is reported as 0.07.
In the case of U20C U104A, the self-cleavage is reported as 1.17.
A59G A92U showed a self-cleavage of 0.1.
For U13C G97A, the self-cleavage was 0.08.
Variant U100C G122U has a self-cleavage of 1.76.
Variant U26A G114A has a self-cleavage of 0.67.
Variant U100A C133U has a self-cleavage of 0.54.
For A94G A124G, the self-cleavage was 0.06.
Work on G82A A140G yielded a self-cleavage of 0.93.
With A117U A129G the self-cleavage was 1.69.
For A24G U47C, the self-cleavage was 1.05.
With C18U A117G the self-cleavage was 1.72.
A31G U47A showed a self-cleavage of 0.94.
For C17U U96C, the self-cleavage was 0.1.
Work on G48A U102C yielded a self-cleavage of 1.94.
In the case of A50G C51U, the self-cleavage is reported as 0.62.
A78U U96C showed a self-cleavage of 0.17.
Variant U23C G54A has a self-cleavage of 0.51.
A92U U130C gave a self-cleavage of 0.73.
In the case of G8A U143C, the self-cleavage is reported as 1.45.
Work on C38U C61G yielded a self-cleavage of 0.02.
In the case of U9C A57G, the self-cleavage is reported as 0.96.
With A57U C98G the self-cleavage was 0.06.
U12C G72U gave a self-cleavage of 1.13.
A43G A79G showed a self-cleavage of 0.97.
In the case of U100A U104C, the self-cleavage is reported as 1.68.
G58U A124C gave a self-cleavage of 0.03.
Work on G11A A121U yielded a self-cleavage of 0.95.
For C63A U119C, the self-cleavage was 0.02.
Variant C120A A142G has a self-cleavage of 0.91.
U47A U73C showed a self-cleavage of 1.45.
In the case of U13C A129C, the self-cleavage is reported as 1.33.
Variant U13A A69U has a self-cleavage of 0.01.
C19U G58U showed a self-cleavage of 0.09.
Variant G32A G34A has a self-cleavage of 0.73.
C123G A124G showed a self-cleavage of 0.74.
For U96G G137A, the self-cleavage was 0.08.
In the case of G49A U87C, the self-cleavage is reported as 0.21.
For U12C C68U, the self-cleavage was 0.35.
Work on G32U U132A yielded a self-cleavage of 1.2.
G34U C63A showed a self-cleavage of 0.04.
Variant U15A G72A has a self-cleavage of 0.92.
In the case of A78U U104G, the self-cleavage is reported as 0.55.
With U13C U96G the self-cleavage was 0.06.
In the case of U15C U26A, the self-cleavage is reported as 1.16.
For G8C A121C, the self-cleavage was 1.75.
With A78G C113U the self-cleavage was 0.93.
A43G C99U showed a self-cleavage of 1.1.
In the case of U15C C146U, the self-cleavage is reported as 1.57.
C111U A141G gave a self-cleavage of 0.45.
In the case of A30G C145G, the self-cleavage is reported as 0.47.
Work on U14C G34U yielded a self-cleavage of 0.45.
With G10A U52C the self-cleavage was 0.62.
U45C G82A showed a self-cleavage of 1.86.
For U73A U109A, the self-cleavage was 0.92.
For A67U U104C, the self-cleavage was 0.25.
For C51U A65G, the self-cleavage was 0.05.
With U81C C116U the self-cleavage was 1.14.
For A94G U102A, the self-cleavage was 0.27.
A31U A138U showed a self-cleavage of 1.4.
With A78U U91A the self-cleavage was 0.85.
A107U A138G showed a self-cleavage of 1.71.
With C116U G125C the self-cleavage was 1.54.
A31G C113U showed a self-cleavage of 1.03.
With U73C G86A the self-cleavage was 0.14.
U13G U45C showed a self-cleavage of 0.78.

From the RNAGym collection of RNA variant scans (doi:10.7554/elife.90254)
